Test results published in paper doi:10.1101/2025.04.23.649697, “Biomass-derived Lignin Nanoparticles for the Sustained Delivery of Vascular Endothelial Growth Factor-C” (bioRxiv, 2025).

Target: the molecule itself
Test: SEC; HiLoad 26/600 Superdex 200 pg in PBS, after IMAC; peaks identified using BSA as a molecular weight marker

B1: mature Vascular Endothelial Growth Factor C (dNdC-hVEGF-C-H6) (ligand, human, UniProt P49767 112-227, looked up)
chain: AHYNTEILKSIDNEWRKTQCMPREVCIDVGKEFGVATNTFFKPPCVSVYRCGGCCNSEGLQCMNTSTSYLSKTLFEITVPLSQGPKPVTISFANHTSCRCMSKLDVYRQVHSIIRR
notes: VEGF-C, human, dNdC form (called mature VEGFC); secreted with the BiP signal peptide of the vector pMT-Ex; SEC gave dimeric and monomeric species; The dimeric peak was collected and used for nanoparticle loading and the bioassays; also called mature VEGFC; purified mature VEGFC; not shown: His6 (H6 in the construct's name)
stoichiometry N: 2
